Experimental data: patent US20190241648A1 (STATEN BIOTECHNOLOGY B V, published 2019)
Ends that are not written are not given here.

Legend:
Test in all cases: peptide microarray
ApoC3 peptide … L50H = molecular target: T1, ApoC3 peptide … L50H (human, not fully specified; cyclic constrained)
T1 peptide: ARGWVTDGFSSHK
From the text: (§1) Amino acids G41 and G46 were highly conserved; substitution of G41 by E, N or Q caused a decrease of spot intensities by ˜70% or higher, whereas exchange of G46 by N was hardly tolerated and resulting in 90% reduced spot intensities. […] Amino acid positions V43, D45 and K51 were also well conserved with a clear preference for the wild type amino acids and a certain tolerance particularly for conservative exchanges by Y, F and I (V43), A, E and K (D45) as well as by R (K51). […] Replacement of V43 by Y, however, increased spot intensity by two fold. Amino acid positions W42 and 48S were poorly conserved or even variable; both positions were susceptible for only a number of amino acid exchanges, and exchange by F, S and T (W42) or by E (S48) even caused a two- to three-fold increase of spot intensity. Amino acid positions A39 and R40 were variable.
(§2) Pre: staining of one of the ApoC3 peptide microarrays was done with the secondary antibody goat anti-human IgG (Fe) DyLight680 (1:5000) and control antibody mouse monoclonal anti-HA (12CA5) DyLight800 (1:2000) to investigate background interactions of the secondary antibody with the antigen-derived peptides that could interfere with the main assays. Subsequent incubation of other ApoC3 peptide microarrays with antibody samples was followed by staining with secondary and control antibodies as well as read-out at scanning intensities of 7/7 (red/green). The additional HA peptides framing the peptide arrays were stained as internal quality control to confirm the assay quality and the peptide microarray integrity.

ApoC3 peptide … G46D = molecular target: T2, ApoC3 peptide … G46D (human, also: cyclic constrained)
T2 peptide: ARGWVTDDFSSLK
From the text: as §1, §2

ApoC3 peptide … R40G = molecular target: T3, ApoC3 peptide … R40G (human, not fully specified (bridges); also: cyclic constrained)
T3 peptide: AGGWVTDGFSSLK
From the text: as §1, §2

ApoC3 peptide … R40Y = molecular target: T4, ApoC3 peptide … R40Y (human, thioether (positions not given here); also: cyclic constrained)
T4 peptide: AYGWVTDGFSSLK
From the text: as §1, §2

ApoC3 peptide … S49L = molecular target: T5, ApoC3 peptide … S49L (human, cyclic constrained)
T5 peptide: ARGWVTDGFSLLK
From the text: as §1, §2

ApoC3 peptide … S48N = ApoC3 peptide … S48N (human, cyclic constrained)
From the text: as §1, §2

ApoC3 peptide … W42L = molecular target: T6, ApoC3 peptide … W42L (human, not fully specified (bridges); also: cyclic constrained)
T6 peptide: ARGLVTDGFSSLK
From the text: as §1, §2

ApoC3 peptide … F47I = molecular target: T7, ApoC3 peptide … F47I (human, not fully specified (bridges); also: cyclic constrained)
T7 peptide: ARGWVTDGISSLK
From the text: as §1, §2

ApoC3 peptide … S48R = molecular target: T8, ApoC3 peptide … S48R (human, not fully specified (bridges); also: cyclic constrained)
T8 peptide: ARGWVTDGFRSLK
From the text: as §1, §2

ApoC3 peptide … W42P = molecular target: T9, ApoC3 peptide … W42P (human, not fully specified (bridges); also: cyclic constrained)
T9 peptide: ARGPVTDGFSSLK
From the text: as §1, §2

ApoC3 peptide … A39V = molecular target: T10, ApoC3 peptide … A39V (human, not fully specified (bridges); also: cyclic constrained)
T10 peptide: VRGWVTDGFSSLK
From the text: as §1, §2

ApoC3 peptide … V43M = molecular target: T11, ApoC3 peptide … V43M (human, not fully specified; cyclic constrained)
T11 peptide: ARGWMTDGFSSLK
From the text: as §1, §2

ApoC3 peptide … T44H = molecular target: T12, ApoC3 peptide … T44H (human, not fully specified (bridges); also: cyclic constrained)
T12 peptide: ARGWVHDGFSSLK
From the text: as §1, §2

ApoC3 peptide … T44V = molecular target: T13, ApoC3 peptide … T44V (human, not fully specified (bridges); also: cyclic constrained)
T13 peptide: ARGWVVDGFSSLK
From the text: as §1, §2

ApoC3 peptide … W42I = molecular target: T14, ApoC3 peptide … W42I (human, not fully specified (bridges); also: cyclic constrained)
T14 peptide: ARGIVTDGFSSLK
From the text: as §1, §2

ApoC3 peptide … L50N = molecular target: T15, ApoC3 peptide … L50N (human, not fully specified; cyclic constrained)
T15 peptide: ARGWVTDGFSSNK
From the text: as §1, §2

ApoC3 peptide … F47L = molecular target: T16, ApoC3 peptide … F47L (human, not fully specified (bridges); also: cyclic constrained)
T16 peptide: ARGWVTDGLSSLK
From the text: as §1, §2

ApoC3 peptide … K51T = molecular target: T17, ApoC3 peptide … K51T (human, not fully specified; cyclic constrained)
T17 peptide: ARGWVTDGFSSLT
From the text: as §1, §2

ApoC3 peptide … G46N = molecular target: T18, ApoC3 peptide … G46N (human, not fully specified (bridges); also: cyclic constrained)
T18 peptide: ARGWVTDNFSSLK
From the text: as §1, §2

ApoC3 peptide … V43K = molecular target: T19, ApoC3 peptide … V43K (human, not fully specified; cyclic constrained)
T19 peptide: ARGWKTDGFSSLK
From the text: as §1, §2

ApoC3 peptide … A39R = molecular target: T20, ApoC3 peptide … A39R (human, not fully specified (bridges); also: cyclic constrained)
T20 peptide: RRGWVTDGFSSLK
From the text: as §1, §2

ApoC3 peptide … T44C = molecular target: T21, ApoC3 peptide … T44C (human, not fully specified (bridges); also: cyclic constrained)
T21 peptide: ARGWVCDGFSSLK
From the text: as §1, §2

ApoC3 peptide … K51V = molecular target: T22, ApoC3 peptide … K51V (human, not fully specified; cyclic constrained)
T22 peptide: ARGWVTDGFSSLV
From the text: as §1, §2

ApoC3 peptide … T44Q = molecular target: T23, ApoC3 peptide … T44Q (human, not fully specified (bridges); also: cyclic constrained)
T23 peptide: ARGWVQDGFSSLK
From the text: as §1, §2

ApoC3 peptide … G46Q = molecular target: T24, ApoC3 peptide … G46Q (human, not fully specified (bridges); also: cyclic constrained)
T24 peptide: ARGWVTDQFSSLK
From the text: as §1, §2

ApoC3 peptide … F47C = molecular target: T25, ApoC3 peptide … F47C (human, not fully specified (bridges); also: cyclic constrained)
T25 peptide: ARGWVTDGCSSLK
From the text: as §1, §2

ApoC3 peptide … D45A = molecular target: T26, ApoC3 peptide … D45A (human, not fully specified (bridges); also: cyclic constrained)
T26 peptide: ARGWVTAGFSSLK
From the text: as §1, §2

ApoC3 peptide … T44L = molecular target: T27, ApoC3 peptide … T44L (human, not fully specified (bridges); also: cyclic constrained)
T27 peptide: ARGWVLDGFSSLK
From the text: as §1, §2

ApoC3 peptide … V43L = molecular target: T28, ApoC3 peptide … V43L (human, not fully specified; cyclic constrained)
T28 peptide: ARGWLTDGFSSLK
From the text: as §1, §2

ApoC3 peptide … R40C = molecular target: T29, ApoC3 peptide … R40C (human, not fully specified (bridges); also: cyclic constrained)
T29 peptide: ACGWVTDGFSSLK
From the text: as §1, §2

- % of binding to wild-type peptide (ApoC3 peptide … L50H): 0%
- % of binding to wild-type peptide (ApoC3 peptide … G46D): 0%
- % of binding to wild-type peptide (ApoC3 peptide … R40G): 62.9%
- % of binding to wild-type peptide (ApoC3 peptide … R40Y): 37.5%
- % of binding to wild-type peptide (ApoC3 peptide … S49L): 0%
- % of binding to wild-type peptide (ApoC3 peptide … S48N): 48.5%
- % of binding to wild-type peptide (ApoC3 peptide … W42L): 312%
- % of binding to wild-type peptide (ApoC3 peptide … F47I): 0%
- % of binding to wild-type peptide (ApoC3 peptide … S48R): 34.5%
- % of binding to wild-type peptide (ApoC3 peptide … W42P): 18.6%
- % of binding to wild-type peptide (ApoC3 peptide … A39V): 76%
- % of binding to wild-type peptide (ApoC3 peptide … V43M): 20.9%
- % of binding to wild-type peptide (ApoC3 peptide … T44H): 0.92%
- % of binding to wild-type peptide (ApoC3 peptide … T44V): 4.26%
- % of binding to wild-type peptide (ApoC3 peptide … W42I): 27.9%
- % of binding to wild-type peptide (ApoC3 peptide … L50N): 0%
- % of binding to wild-type peptide (ApoC3 peptide … F47L): 4.56%
- % of binding to wild-type peptide (ApoC3 peptide … K51T): 17.5%
- % of binding to wild-type peptide (ApoC3 peptide … G46N): 10.4%
- % of binding to wild-type peptide (ApoC3 peptide … V43K): 25.4%
- % of binding to wild-type peptide (ApoC3 peptide … A39R): 89.4%
- % of binding to wild-type peptide (ApoC3 peptide … T44C): 0%
- % of binding to wild-type peptide (ApoC3 peptide … K51V): 3.85%
- % of binding to wild-type peptide (ApoC3 peptide … T44Q): 0%
- % of binding to wild-type peptide (ApoC3 peptide … G46Q): 0%
- % of binding to wild-type peptide (ApoC3 peptide … F47C): 0%
- % of binding to wild-type peptide (ApoC3 peptide … D45A): 45.3%
- % of binding to wild-type peptide (ApoC3 peptide … T44L): 0.5%
- % of binding to wild-type peptide (ApoC3 peptide … V43L): 429%
- % of binding to wild-type peptide (ApoC3 peptide … R40C): 62.3%
B1: anti-ApoC3 antibody 14C7 (antibody, V domains shown)
VH: QVQVQESGPGLVKPSQTLSLTCTVSGGSITTNSYYWSWIRQPPGKGLEWMGAIDYSGDTYYSPSLKSRTSISRDTSKNQFTLQLTSVTPEDTAVYYCVSRIPTGEYWGQGTQVTVSS
VL: QTVVTQEPSLSVSPGGTVTLTCGLNSGSVTSSNYPDWYQQTPGQAPRLLIYNTNSRHSGVPSRFSGSISGNKAALTITGAQPEDEADYYCALYMGSDSVVFGGGTHLTVL
notes: it was detected with goat anti-human IgG (Fc); also called mAb 14C7; llama antibody 14C7
